Laboratory results published in patent US20250276081A1, “Mucin-Active Proteases and Methods of Use” (priority 2022, published 2025).

Assays:
OVCAR-3 cells = test: Bioactive compound library screen and STACK cell death analysis ± StcE; assay type: cell-based
Description: Bioactive compound library screen. A library of 261 bioactive compounds (Selleck Chemicals) was stored at −80° C. The library was re-formatted from 96-well to 384-well format using a Versette automated liquid handler configured with a 96-channel pipetting head and diluted to 2 mM in DMSO. The day before the screen, 5×10^3 OVCAR-3^N cells/well were seeded into two 384-well plates in 45 μL of medium. The next day, the medium was removed and replaced with medium containing 20 nM Sytox Green and compounds from a freshly thawed library master stock plate (1 compound/well) were added to a final concentration of 500 nM. One plate was co-treated with vehicle (PBS) and the other with 50 nM StcE. Plates were imaged immediately and every 2 h thereafter for a total of 72 h using the Essen IncuCyte Zoom. Counts of Sytox Green and mKate^2 objects per mm^2 were obtained and the lethal fraction calculated as previously described^2. […] The Bliss Independence Model was used to compute expectant cell death of compound+ StcE treatment using normalized AUC (nAUC) values, and deviation from this expectation was used to infer modulation of cell death, as described previously^3.
Measuring cell death using STACK. Follow-up cell death experiments of OVCAR-3^N cells were performed using scalable time-lapse analysis of cell death kinetics (STACK) 2. […]

mucin-1 (MUC1) (human) = mucin-1 (MUC1) (human) (UniProt P15941)
[1] = molecular target: human epidermal growth factor receptor 2 (HER2) (human) (UniProt P04626)
[2] = molecular target: Annexin A1 (ANXA1) (human) (UniProt P04083)
CD29 (human) = CD29 (human) (UniProt P05556)
CD30 (human) = CD30 (human) (UniProt P28908)
[3] = molecular target: CD43 (sialophorin) (human) (UniProt P16150)
CD46 (human) = CD46 (human) (UniProt P15529)
CD98 (human) = CD98 (human) (UniProt P08195)
CD236 (human) = CD236 (human) (UniProt P04921)
[4] = molecular target: cell surface mucins on HeLa cells

Chain of mucin-1 (MUC1) (human) (P15941 24-1255): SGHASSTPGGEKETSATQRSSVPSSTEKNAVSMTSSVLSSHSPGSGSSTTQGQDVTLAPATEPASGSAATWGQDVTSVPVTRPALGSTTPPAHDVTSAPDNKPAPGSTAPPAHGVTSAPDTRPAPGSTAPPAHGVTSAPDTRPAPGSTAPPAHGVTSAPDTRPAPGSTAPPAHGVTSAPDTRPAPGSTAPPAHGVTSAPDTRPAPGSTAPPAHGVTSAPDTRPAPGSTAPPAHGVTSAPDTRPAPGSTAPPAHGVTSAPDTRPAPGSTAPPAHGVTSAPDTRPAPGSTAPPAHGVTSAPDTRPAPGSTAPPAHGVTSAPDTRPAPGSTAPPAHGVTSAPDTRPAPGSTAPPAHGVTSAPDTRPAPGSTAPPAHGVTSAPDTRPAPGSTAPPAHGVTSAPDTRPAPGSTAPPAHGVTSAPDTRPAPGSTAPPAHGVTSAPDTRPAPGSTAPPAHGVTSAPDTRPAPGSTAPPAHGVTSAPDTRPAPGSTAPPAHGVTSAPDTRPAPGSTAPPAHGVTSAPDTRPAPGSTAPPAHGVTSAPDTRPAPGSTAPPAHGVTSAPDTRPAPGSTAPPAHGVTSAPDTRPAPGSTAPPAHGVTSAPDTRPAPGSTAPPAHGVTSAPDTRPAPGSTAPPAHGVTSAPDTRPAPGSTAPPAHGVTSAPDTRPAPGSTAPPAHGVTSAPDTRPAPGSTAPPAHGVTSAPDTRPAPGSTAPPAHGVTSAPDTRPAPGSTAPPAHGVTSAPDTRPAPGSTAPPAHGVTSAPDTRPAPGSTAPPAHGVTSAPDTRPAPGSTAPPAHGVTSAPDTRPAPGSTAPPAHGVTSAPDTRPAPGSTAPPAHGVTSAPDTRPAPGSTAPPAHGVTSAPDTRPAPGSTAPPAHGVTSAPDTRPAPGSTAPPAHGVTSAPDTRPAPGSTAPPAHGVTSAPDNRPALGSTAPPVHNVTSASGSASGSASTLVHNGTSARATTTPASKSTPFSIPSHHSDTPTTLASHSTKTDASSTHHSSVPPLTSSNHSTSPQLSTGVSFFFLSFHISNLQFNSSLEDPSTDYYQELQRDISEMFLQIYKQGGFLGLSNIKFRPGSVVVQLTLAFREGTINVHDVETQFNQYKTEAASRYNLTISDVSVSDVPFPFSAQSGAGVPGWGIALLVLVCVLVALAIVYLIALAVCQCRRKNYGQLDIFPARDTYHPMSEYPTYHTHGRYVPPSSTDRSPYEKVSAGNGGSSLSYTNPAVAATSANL
Chain of CD43 (sialophorin) (human) (P16150 20-400): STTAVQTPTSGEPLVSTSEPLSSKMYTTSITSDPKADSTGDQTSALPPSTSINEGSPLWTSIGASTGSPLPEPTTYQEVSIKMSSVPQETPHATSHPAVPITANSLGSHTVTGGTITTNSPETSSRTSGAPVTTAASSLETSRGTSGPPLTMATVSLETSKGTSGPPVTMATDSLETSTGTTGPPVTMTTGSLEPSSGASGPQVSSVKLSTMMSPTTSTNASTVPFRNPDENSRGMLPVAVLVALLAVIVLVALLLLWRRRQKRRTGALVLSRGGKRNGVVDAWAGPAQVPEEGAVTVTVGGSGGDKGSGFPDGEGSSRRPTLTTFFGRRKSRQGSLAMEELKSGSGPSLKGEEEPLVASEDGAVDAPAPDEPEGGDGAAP
Chain of CD29 (human) (P05556 21-798): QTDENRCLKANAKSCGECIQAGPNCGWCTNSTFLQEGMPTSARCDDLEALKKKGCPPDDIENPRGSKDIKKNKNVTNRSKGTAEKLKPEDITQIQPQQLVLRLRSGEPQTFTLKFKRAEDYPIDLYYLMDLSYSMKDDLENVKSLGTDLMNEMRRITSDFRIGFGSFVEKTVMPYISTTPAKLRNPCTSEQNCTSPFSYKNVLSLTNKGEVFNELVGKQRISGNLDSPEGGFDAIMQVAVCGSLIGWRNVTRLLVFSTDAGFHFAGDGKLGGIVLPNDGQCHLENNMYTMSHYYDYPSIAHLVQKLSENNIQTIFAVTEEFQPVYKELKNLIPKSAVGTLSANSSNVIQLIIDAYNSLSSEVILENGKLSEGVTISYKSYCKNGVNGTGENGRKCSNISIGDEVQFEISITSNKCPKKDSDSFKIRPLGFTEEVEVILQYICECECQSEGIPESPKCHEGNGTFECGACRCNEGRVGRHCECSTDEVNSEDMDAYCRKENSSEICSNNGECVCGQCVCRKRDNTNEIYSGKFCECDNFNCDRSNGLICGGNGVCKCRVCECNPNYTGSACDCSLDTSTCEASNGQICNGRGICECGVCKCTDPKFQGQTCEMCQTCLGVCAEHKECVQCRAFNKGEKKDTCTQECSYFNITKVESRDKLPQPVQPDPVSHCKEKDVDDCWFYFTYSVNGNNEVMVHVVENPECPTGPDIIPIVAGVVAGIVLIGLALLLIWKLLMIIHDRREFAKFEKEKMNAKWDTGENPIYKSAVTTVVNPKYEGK
Chain of CD46 (human) (P15529 35-392): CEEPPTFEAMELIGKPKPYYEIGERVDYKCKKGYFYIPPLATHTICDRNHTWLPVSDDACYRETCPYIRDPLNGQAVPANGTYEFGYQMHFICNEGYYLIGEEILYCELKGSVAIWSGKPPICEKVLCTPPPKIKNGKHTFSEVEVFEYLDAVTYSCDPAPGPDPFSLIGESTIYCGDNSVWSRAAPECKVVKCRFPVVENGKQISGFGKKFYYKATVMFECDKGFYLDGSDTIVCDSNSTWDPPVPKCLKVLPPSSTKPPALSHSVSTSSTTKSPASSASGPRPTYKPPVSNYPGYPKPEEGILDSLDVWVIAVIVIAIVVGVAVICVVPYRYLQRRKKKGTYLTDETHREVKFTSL
Chain of CD98 (human) (P08195 103-630): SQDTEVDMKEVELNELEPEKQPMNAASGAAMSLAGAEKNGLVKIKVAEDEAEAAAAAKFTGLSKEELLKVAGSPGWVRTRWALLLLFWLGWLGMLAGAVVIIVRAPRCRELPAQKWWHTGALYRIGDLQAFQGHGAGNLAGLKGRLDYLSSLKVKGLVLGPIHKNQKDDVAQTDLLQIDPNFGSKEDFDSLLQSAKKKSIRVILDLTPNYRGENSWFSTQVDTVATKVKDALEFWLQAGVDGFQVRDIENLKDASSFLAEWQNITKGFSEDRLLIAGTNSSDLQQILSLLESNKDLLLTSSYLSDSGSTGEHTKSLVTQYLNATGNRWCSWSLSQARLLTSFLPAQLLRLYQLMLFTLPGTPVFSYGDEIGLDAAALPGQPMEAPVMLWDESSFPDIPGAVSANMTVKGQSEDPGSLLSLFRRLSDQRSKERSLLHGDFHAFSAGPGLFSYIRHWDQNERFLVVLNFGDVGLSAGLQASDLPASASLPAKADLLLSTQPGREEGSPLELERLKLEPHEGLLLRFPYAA
Chain of CD236 (human) (P04921 whole entry): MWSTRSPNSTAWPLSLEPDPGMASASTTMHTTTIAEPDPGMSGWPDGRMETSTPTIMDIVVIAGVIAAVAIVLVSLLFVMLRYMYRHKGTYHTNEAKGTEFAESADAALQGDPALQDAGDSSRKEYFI
Chain of CD30 (human) (P28908 19-595): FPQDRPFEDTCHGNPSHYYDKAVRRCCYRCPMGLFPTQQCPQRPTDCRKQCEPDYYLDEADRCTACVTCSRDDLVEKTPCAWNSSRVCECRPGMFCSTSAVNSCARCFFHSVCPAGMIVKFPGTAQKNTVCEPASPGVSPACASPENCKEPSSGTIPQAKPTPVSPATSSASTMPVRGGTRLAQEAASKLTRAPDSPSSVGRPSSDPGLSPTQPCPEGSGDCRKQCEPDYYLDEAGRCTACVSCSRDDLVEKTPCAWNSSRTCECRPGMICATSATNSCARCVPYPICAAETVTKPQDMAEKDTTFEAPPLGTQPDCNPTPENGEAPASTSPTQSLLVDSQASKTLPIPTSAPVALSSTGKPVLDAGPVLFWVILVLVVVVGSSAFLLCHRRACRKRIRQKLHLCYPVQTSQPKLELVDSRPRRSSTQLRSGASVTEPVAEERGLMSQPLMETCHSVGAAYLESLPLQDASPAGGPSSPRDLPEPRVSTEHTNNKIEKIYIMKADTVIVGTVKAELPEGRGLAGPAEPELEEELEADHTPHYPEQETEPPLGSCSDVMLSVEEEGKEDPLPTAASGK
Chain of Annexin A1 (ANXA1) (human) (P04083 2-346): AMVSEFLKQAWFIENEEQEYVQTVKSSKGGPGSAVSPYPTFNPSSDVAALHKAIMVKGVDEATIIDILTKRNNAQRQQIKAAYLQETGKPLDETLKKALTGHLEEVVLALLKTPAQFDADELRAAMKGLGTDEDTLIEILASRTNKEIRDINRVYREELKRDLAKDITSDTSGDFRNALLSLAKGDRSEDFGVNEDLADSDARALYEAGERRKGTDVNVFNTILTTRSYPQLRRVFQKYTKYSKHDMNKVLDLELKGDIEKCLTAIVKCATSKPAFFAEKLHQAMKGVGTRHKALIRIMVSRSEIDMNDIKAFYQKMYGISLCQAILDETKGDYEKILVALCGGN

Compound: COC(=O)c1ccc([C@@H]2c3[nH]c4ccccc4c3C[C@@H](C(=O)OC)N2C(=O)CCl)cc1 [RSL3]
- Enhancement of ferroptosis by StcE co-treatment (OVCAR-3 cells; dose response ± 50 nM StcE, OVCAR-3): no enhancement of ferroptosis

Compound: CCOC(=O)c1ccc(NC2CCCCC2)c(N)c1 [ferrostatin-1]
- Suppression of erastin2 + StcE induced ferroptosis (OVCAR-3 cells; 1 μM ferrostatin-1): fully suppressed

Compound: Anti-MUC1/episialin antibody, clone 214D4 (EMD Millipore)
- Maximum MFI observed in binding assay (mucin-1 (MUC1) (human)): 328 AU

Compound: Isotype control antibody, clone MOPC-21 (BioLegend)
- Maximum MFI observed in binding assay (K562^HER2 cell surface): 0.1 AU

Compound: Mouse IgG1 anti-human CD340 (erbB2/HER-2) antibody, clone 24D2 (BioLegend)
- Maximum MFI observed in binding assay [1]: 311 AU

Compound: anti-Annexin A1 antibody, clone 74/3 (BioLegend)
- Maximum MFI observed in binding assay [2]: 1.3 AU

Compound: anti-CD29 antibody, clone P5D2 (BioLegend)
- Maximum MFI observed in binding assay (CD29 (human)): 23.7 AU

Compound: anti-CD30 antibody, clone BY88 (BioLegend)
- Maximum MFI observed in binding assay (CD30 (human)): 9.8 AU

Compound: anti-CD43 antibody, clone CD43-10G7 (BioLegend)
- Maximum MFI observed in binding assay [3]: 160 AU

Compound: anti-CD46 antibody, clone TRA-2-10 (BioLegend)
- Maximum MFI observed in binding assay (CD46 (human)): 64.9 AU

Compound: anti-CD98 antibody, clone MEM-108 (BioLegend)
- Maximum MFI observed in binding assay (CD98 (human)): 234 AU

Compound: anti-CD236 antibody, clone QA20A41 (BioLegend)
- Maximum MFI observed in binding assay (CD236 (human)): 188 AU

Compound: ddStcE^W366A (ΔC, ΔINS and W366A), engineered StcE (from UniProt O82882 36-803) (enzyme)
- Kd [4]: 2000 nM
